# In FireProtDB (doi:10.1021/bi0268697):
# Several values for one entry are separate records, joined by “and”; a condition that tells them apart may be missing. Equal values may be shown once.
# B1: Barstar, P11540 (parent)
# chain: MKKAVINGEQIRSISDLHQTLKKELALPEYYGENLDALWDCLTGWVEYPLVLEWRQFEQSKQLTENGAESVLQVFREAKAEGCDITIILS
# Variants of: B1
# Conditions: Bacillus amyloliquefaciens; pH 8; 25 °C; Urea; CD; Tris 20 mM; reversible: yes; structure 1BTA; whole UniProt chain shown
variant,measurement,value
W39F W45F C41A C83A A26C,denaturant midpoint (higher = more stable),3.5 M and 3.4 M
same,unfolding free energy,4.4 kcal/mol and 4.3 kcal/mol
W39F W45F C41A C83A L63C,denaturant midpoint (higher = more stable),3.3 M
same,unfolding free energy,4 kcal/mol
W39F W45F S13T C41A,denaturant midpoint (higher = more stable),3.4 M and 3.5 M
same,unfolding free energy,4.5 kcal/mol
W39F W45F C83A,denaturant midpoint (higher = more stable),3.3 M and 3.7 M
same,unfolding free energy,4.2 kcal/mol and 4.7 kcal/mol
